Target: mouse Nicastrin I241C mutant (mouse) (UniProt P57716)
Assay: cross-linking

Chain of UniProt P57716 (P57716 28-708 I241C): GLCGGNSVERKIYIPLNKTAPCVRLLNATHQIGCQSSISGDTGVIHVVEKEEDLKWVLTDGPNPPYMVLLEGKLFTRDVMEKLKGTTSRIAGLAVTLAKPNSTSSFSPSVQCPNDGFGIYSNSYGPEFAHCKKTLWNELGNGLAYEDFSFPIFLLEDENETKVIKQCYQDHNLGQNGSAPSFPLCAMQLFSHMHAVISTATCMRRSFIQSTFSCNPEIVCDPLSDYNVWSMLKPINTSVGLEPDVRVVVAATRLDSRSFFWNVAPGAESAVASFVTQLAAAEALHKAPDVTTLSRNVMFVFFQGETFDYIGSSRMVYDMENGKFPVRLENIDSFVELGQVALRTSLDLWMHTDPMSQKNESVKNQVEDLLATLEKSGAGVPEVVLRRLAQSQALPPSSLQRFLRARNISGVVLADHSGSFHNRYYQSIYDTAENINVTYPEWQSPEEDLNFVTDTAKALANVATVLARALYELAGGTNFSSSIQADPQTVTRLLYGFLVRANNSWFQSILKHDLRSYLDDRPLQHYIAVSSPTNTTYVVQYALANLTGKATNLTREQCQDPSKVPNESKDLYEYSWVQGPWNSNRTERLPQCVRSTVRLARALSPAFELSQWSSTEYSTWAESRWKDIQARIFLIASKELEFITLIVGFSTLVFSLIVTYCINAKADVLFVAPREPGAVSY

- percent of the substrate cross-linked to NCT (disulfide bond): 15.4%
Substance: APPC99‐3xFLAG‐K28C (domain or fragment)
